Reference: US20200140532A1 (Ablynx, published 2020)

B1: C0101PMP601E08 (VHH)
VHH: DVQLVESGGGLVQPGGSLRLSCTASGRTFSSYAVGWFRQAPGKEREFVAAISRSGRSTYYADSVKGRFTISRDNSKNTVYLQMNSLRPEDTAVYYCAAGLSYYSPHAYYDYWGQGTLVTVSS
notes: Tested as E. coli periplasmic extract; not shown: FLAG3 and His6 tags (phagemid pAX212)
B2: C0101PMP114F08 (VHH)
VHH: EVQLVESGGGLVQAGGSLRLSCAASGSTFIINVVRWYRRTPGKQRELVATISSGGNANYVDSVRGRFSISRDGAKNAVDLQMNGLKPEDTAVYYCNVPTTHYGGVYYGPYWGQGTQVTVSS
notes: as for B1
B3: C01010106 (ALB26-604F02-604F02) (VHH, not shown: large carriers; small tags and cut ends)
VHH 1: DVQLVESGGGLVQPGGSLRLSCAASGRTFSSYTMGWFRQAPGKEREFVAAISWSGGRTYYADSVKGRFTISRDNSKNTVYLQMNSLRPEDTAVYYCAAYRRRRASSNRGLWDYWGQGTLVTVSS
VHH 2: DVQLVESGGGLVQPGGSLRLSCAASGRTFSSYTMGWFRQAPGKEREFVAAISWSGGRTYYADSVKGRFTISRDNSKNTVYLQMNSLRPEDTAVYYCAAYRRRRASSNRGLWDYWGQGTLVTVSS
B4: C0101PMP112A01 (VHH)
VHH: EVQLVESGGGLVQTGGSLRLSCVASGRAFSNYIMGWFRQAPGKERDFVAAINWNGVTTHYTDSVKGRFTISRDNAKSTSYLQMDSLKPDDTAVYFCAARGTVYSRTYGVSEEGYMYWGQGTQVTVSS
notes: as for B1
B5: C0101PMP115B08 (VHH)
VHH: KVQLVESGGGLVQPGGSLRLSCAASGFTFSMYAMKWVRQAPGKGLEWVSGINSSGGRTNYAGSVKGRFTISRDNAKNTLYLQMNSLKPEDTAVYYCATDFLGGRNSRGQGTQVTVSS
notes: as for B1
B6: C0101PMP117G09 (VHH)
VHH: EVQLVESGGGSALPGGSLRLSCAASGITFSSRYMRWYRQAPGRQRELVAAISSGGRTDYVDSVRGRFTLSINNAKNTVYLQMNDLKPEDTAVYYCYRPRMYVDGTYEKELWGQGTLVTVSS
notes: as for B1
B7: C0101PMP604B05 (VHH)
VHH: DVQLVESGGGLVQPGGSLRLSCVASGRTFSIYTMAWFRQAPGKEREFVAAISWSSGRTYYADSVKGRFTISRDNSKNTVYLQMNSLRPEDTAVYYCTAYTGPRSGYDYWGQGTLVTVSS
notes: as for B1
B8: C0101PMP606A07 (VHH)
VHH: DVQLVESGGGLVQPGGSLRLSCVASGRTFSIYGMGWFRQAPGKEREFVAAINGGSRTYYADSVKGRFTISRDNSKNTVYLQMNSLRPEDTAVYYCAADRSGYGTSLDWWYDYWGQGTLVTVSS
notes: as for B1
B9: C0101PMP608A05 (VHH)
VHH: DVQLVESGGGLVQPGGSLRLSCAASGRTFSTYTMGWFRQAPGKEREFVAAISWSGGTTYYADSVKGRFTISRDNSKNTVYLQMNSLRPEDTAVYYCAARPRYYYYSLYSYDYWGQGTLVTVSS
notes: as for B1
B10: C0101PMP604G01 (VHH)
VHH: DVQLVESGGGLVQPGGSLRLSCAASGRTFSSYTMGWFRQAPGKEREFVAAISWSGRTTYYADSVKGRFTISRDNSKNTVYLQMNSLRPEDTAVYYCAAYRRVRYTNLEVWDYWGQGTLVTVSS
notes: as for B1
B11: C0101PMP609C09 (VHH)
VHH: DVQLVESGGGLVQPGGSLRLSCAASGTIFSINVMGWYRQAPGKEREFVAAITTGGRTNYADSVKGRFTISRDNSKNTVYLQMNSLRPEDTAVYYCNAEVTTGWVGYSWYDYWGQGTMVTVSS
notes: as for B1
B12: C0101PMP112A03 (VHH)
VHH: EVQLVESGGGLVQPGGSLRLSCAASGSIFSNRFMYWYRQAPGKQRELVASITLSGSTNYADSVKGRFTISRDNAKNTVYLQMNSLKPEDTAVYYCNTFLQNSFYWGQGTQVTVSS
notes: as for B1
B13: C0101PMP117D05 (VHH)
VHH: KVQLVESGGGLVQAGGSLRLSCAASRRTFNMMGWFRQAPGKEREFVAYITWNGGDTRYAESVKGRFTVSRDDVKNTMALQMNRLDPLDTAVYYCGVRIHGSNWSTKADDYDNWGQGTQVTVSS
notes: as for B1
B14: C0101PMP604G09 (VHH)
VHH: DVQLVESGGGLVQPGGSLRLSCVASGRTFSSYAMGWFRQAPGKEREFVAAITWSSATTYYADSVKGRFTISRDNSKNTVYLQMNSLRPEDTAVYYCAAARIPVGRRSENWDYWGQGTLVTVSS
notes: as for B1
B15: C0101PMP113A01 (VHH)
VHH: EVQLVESGGGLVQPGGSLRLSCSASGFTFSGSWMFWVRQAPGKDYEWVASINSSGGRTYYDDSVKGRFTISRDSAKNTLYLEMNNLKPEDTALYFCARSPRVGSWGQGTQVTVSS
notes: as for B1
B16: C0101PMP601D02 (VHH)
VHH: DVQLVESGGGLVQPGGSLRLSCAASGPTFSRYAMGWFRQAPGKEREFVAAITWSSGGRTYYADSVKGRFTISRDNSKNTVYLQMNSLRPEDTAVYYCAAARIPVRTYTSEWNYWGQGTLVTVSS
notes: as for B1
B17: C0101PMP601E09 (VHH)
VHH: DVQLVESGGGLVQPGGSLRLSCAASGLTFSTYAMGWFRQAPGKEREFVAAISWSGSRTYYADSVKGRFTISRDNSKNTVYLQMNSLRPEDTAVYYCAAYRRPRYSPTGTWDYWGQGTLVTVSS
notes: as for B1
B18: C0101PMP604F02 (VHH)
VHH: DVQLVESGGGLVQPGGSLRLSCAASGRTFSSYTMGWFRQAPGKEREFVAAISWSGGRTYYADSVKGRFTISRDNSKNTVYLQMNSLRPEDTAVYYCAAYRRRRASSNRGLWDYWGQGTLVTVSS
notes: as for B1

Legend:
[1] = molecular target: T1, recombinant rat Aggrecan G1-IGD-G2 (rat, UniProt P07897 20-684, limits assumed); assay: periplasmic extract ELISA
T1 construct: also called Rat G1-IGD-G2

[2] = molecular target: T2, recombinant bovine Aggrecan G1-IGD-G2 (bovine, UniProt P13608 20-684, limits assumed); assay: periplasmic extract ELISA
T2 construct: also called Bov G1-IGD-G2; Boy G1-IGD-G2

[3] = molecular target: T3, recombinant human Aggrecan G1-IGD-G2 (human, UniProt P16112 20-676); assay: periplasmic extract ELISA
T3 construct: Only the G1-IGD-G2 region was used (R&D Systems 1220-PG is named for the immunogen); also called Hu G1-IGD-G2

[4] = molecular target: T4, recombinant dog Aggrecan G1-IGD-G2 (dog, UniProt Q28343 20-693, limits assumed); assay: periplasmic extract ELISA
T4 construct: also called Dog G1-IGD-G2

[5] = molecular target: T1, recombinant rat Aggrecan G1-IGD-G2; assay: ELISA on recombinant G1-IGD-G2
[6] = molecular target: T3, recombinant human Aggrecan G1-IGD-G2; assay: ELISA on recombinant G1-IGD-G2
[7] = molecular target: T4, recombinant dog Aggrecan G1-IGD-G2; assay: ELISA on recombinant G1-IGD-G2

Row | Binder | OD 450 nm [1] | OD 450 nm [2] | OD 450 nm [3] | OD 450 nm [4] | EC50 [5] | EC50 [6] | EC50 [7]
1 | B1 | 2.49 OD 450 nm | 1.68 OD 450 nm | 2.28 OD 450 nm | 0.57 OD 450 nm | – | – | –
2 | B2 | 2.05 OD 450 nm | 1.18 OD 450 nm | 2.38 OD 450 nm | 1.9 OD 450 nm | – | – | –
3 | B3 | – | – | – | – | 0.1 nM | 0.066 nM | 0.097 nM
4 | B4 | 2.03 OD 450 nm | 2.41 OD 450 nm | 2.5 OD 450 nm | 1.57 OD 450 nm | – | – | –
5 | B5 | 1.85 OD 450 nm | 0.84 OD 450 nm | 1.65 OD 450 nm | 1.8 OD 450 nm | – | – | –
6 | B6 | 2.29 OD 450 nm | 0.76 OD 450 nm | 2.21 OD 450 nm | 1.68 OD 450 nm | – | – | –
7 | B7 | 1.98 OD 450 nm | 1.63 OD 450 nm | 2.48 OD 450 nm | 1.27 OD 450 nm | – | – | –
8 | B8 | 2.31 OD 450 nm | – | 0.71 OD 450 nm | 1.47 OD 450 nm | – | – | –
9 | B9 | 2.39 OD 450 nm | 2.27 OD 450 nm | 2.33 OD 450 nm | 0.86 OD 450 nm | – | – | –
10 | B10 | 0.6 OD 450 nm | 0.68 OD 450 nm | 2.27 OD 450 nm | 1.55 OD 450 nm | – | – | –
11 | B11 | 0.97 OD 450 nm | 1.08 OD 450 nm | 2.1 OD 450 nm | 1.52 OD 450 nm | – | – | –
12 | B12 | 1.69 OD 450 nm | 0.73 OD 450 nm | 2.51 OD 450 nm | 1.47 OD 450 nm | – | – | –
13 | B13 | 2.35 OD 450 nm | 1.92 OD 450 nm | 2.25 OD 450 nm | 1.53 OD 450 nm | – | – | –
14 | B14 | 1.4 OD 450 nm | 1.21 OD 450 nm | 2.41 OD 450 nm | 1.16 OD 450 nm | – | – | –
15 | B15 | 2.53 OD 450 nm | 2.54 OD 450 nm | 2.56 OD 450 nm | 2.51 OD 450 nm | – | – | –
16 | B16 | 2.59 OD 450 nm | – | 2.58 OD 450 nm | 2.58 OD 450 nm | – | – | –
17 | B17 | 2.61 OD 450 nm | – | – | 2.57 OD 450 nm | – | – | –
18 | B18 | 0.78 OD 450 nm | 0.82 OD 450 nm | 2.41 OD 450 nm | 1.04 OD 450 nm | – | – | –
